Assays:
[1] = target: Hsp82 C61-ATTO 550 (S. cerevisiae) (UniProt P02829)
[2] = target: Hsc82 C61-ATTO 550 (S. cerevisiae) (UniProt P15108)
[3] = target: Hsc82 C61-ATTO 550 (S. cerevisiae) (UniProt P15108); assay: FRET or BRET; subunit exchange after mixing of NTD- and MD-labeled dimers, no nucleotide; standard buffer (40 mM HEPES pH 7.5, 150 mM KCl, 5 mM MgCl2), 30 °C
[4] = target: Hsc82 C61-ATTO 550 (S. cerevisiae) (UniProt P15108); assay: FRET or BRET; FRET chase: tenfold excess of unlabeled Hsp90 added to the preformed FRET complex (400 nM), without nucleotide, 30 °C; apparent
[5] = target: Hsc82 C61-ATTO 550 (S. cerevisiae) (UniProt P15108); assay: FRET or BRET; FRET chase: tenfold excess of unlabeled Hsp90 added to the FRET complex preequilibrated 30 min with 2 mM ATP, 30 °C; apparent
[6] = target: Hsp82 protomer of the NM-FRET heterodimer (S. cerevisiae) (UniProt P02829); assay: FRET or BRET; subunit exchange after mixing of NTD- and MD-labeled dimers, no nucleotide; standard buffer (40 mM HEPES pH 7.5, 150 mM KCl, 5 mM MgCl2), 30 °C
[7] = target: Hsp82 C61-ATTO 550 (S. cerevisiae) (UniProt P02829); assay: as above
[8] = target: Hsp82 C61-ATTO 550 (S. cerevisiae) (UniProt P02829); assay: FRET or BRET; FRET chase: tenfold excess of unlabeled Hsp90 added to the FRET complex preequilibrated 30 min with 2 mM ATP, 30 °C; apparent

For “Cpr6 (from UniProt P53691 1-371) (natural protein)”, which ATPγS-induced closing rate kapp of the Hsp82 NM-FRET dimer (C61-ATTO 550 with C385-ATTO 488 protomers) with 4 µM Cpr6, percentage of kapp without co-chaperone [1] is on record?
Its ATPγS-induced closing rate kapp of the Hsp82 NM-FRET dimer (C61-ATTO 550 with C385-ATTO 488 protomers) with 4 µM Cpr6, percentage of kapp without co-chaperone is 239%.

What about the ATPγS-induced closing rate kapp of the Hsc82 NM-FRET dimer (C61-ATTO 550 with C381-ATTO 488 protomers) with 4 µM Cpr6, percentage of kapp without co-chaperone [2] of the same molecule?
Its ATPγS-induced closing rate kapp of the Hsc82 NM-FRET dimer (C61-ATTO 550 with C381-ATTO 488 protomers) with 4 µM Cpr6, percentage of kapp without co-chaperone is 108%.

“Hsc82 C381-ATTO 488 (from UniProt P15108 1-705) (natural protein)” was tested. Which subunit exchange rate (kse) [3] did it give?
Its subunit exchange rate (kse) is 0.037 s⁻¹.

What about the reopening of closed state rate, without nucleotide (t½) [4] of the same molecule?
Its reopening of closed state rate, without nucleotide (t½) is 32 s.

What about the reopening of closed state rate, with ATP (kapp as headed; apparent half-life by the legend) [5] of the same molecule?
The reopening of closed state rate, with ATP (kapp as headed; apparent half-life by the legend) was 0.7 min⁻¹.

For “Hsc82 protomer of the NM-FRET heterodimer (from UniProt P15108 1-705) (natural protein)”, which subunit exchange rate (kse) [6] is on record?
Its subunit exchange rate (kse) is 0.03 s⁻¹.

For “Hsp82 C385-ATTO 488 (from UniProt P02829 1-709) (natural protein)”, which subunit exchange rate (kse) [7] is on record?
The subunit exchange rate (kse) was 0.034 s⁻¹.

And the reopening of closed state rate, with ATP (kapp as headed; apparent half-life by the legend) [8]?
The reopening of closed state rate, with ATP (kapp as headed; apparent half-life by the legend) was 0.7 min⁻¹.

For “p23/Sba1 (from UniProt P28707 1-216) (natural protein)”, which ATPγS-induced closing rate kapp of the Hsc82 NM-FRET dimer (C61-ATTO 550 with C381-ATTO 488 protomers) with 4 µM Sba1, percentage of kapp without co-chaperone [2] is on record?
The ATPγS-induced closing rate kapp of the Hsc82 NM-FRET dimer (C61-ATTO 550 with C381-ATTO 488 protomers) with 4 µM Sba1, percentage of kapp without co-chaperone was 78%.

B1: Aha1 (natural protein)
chain: MVVNNPNNWHWVDKNCIGWAKEYFKQKLVGVEAGSVKDKKYAKIKSVSSIEGDCEVNQRKGKVISLFDLKITVLIEGHVDSKDGSALPFEGSINVPEVAFDSEASSYQFDISIFKETSELSEAKPLIRSELLPKLRQIFQQFGKDLLATHGNDIQVPESQVKSNYTRGNQKSSFTEIKDSASKPKKNALPSSTSTSAPVSSTNKVPQNGSGNSTSIYLEPTFNVPSSELYETFLDKQRILAWTRSAQFFNSGPKLETKEKFELFGGNVISELVSCEKDKKLVFHWKLKDWSAPFNSTIEMTFHESQEFHETKLQVKWTGIPVGEEDRVRANFEEYYVRSIKLTFGFGAVL
Which ATPγS-induced closing rate kapp of the Hsp82 NM-FRET dimer (C61-ATTO 550 with C385-ATTO 488 protomers) with 4 µM Aha1, percentage of kapp without co-chaperone [1] does the source give for B1 here?
Its ATPγS-induced closing rate kapp of the Hsp82 NM-FRET dimer (C61-ATTO 550 with C385-ATTO 488 protomers) with 4 µM Aha1, percentage of kapp without co-chaperone is 868%.

What about the ATPγS-induced closing rate kapp of the Hsc82 NM-FRET dimer (C61-ATTO 550 with C381-ATTO 488 protomers) with 4 µM Aha1, percentage of kapp without co-chaperone [2] of the same molecule?
Its ATPγS-induced closing rate kapp of the Hsc82 NM-FRET dimer (C61-ATTO 550 with C381-ATTO 488 protomers) with 4 µM Aha1, percentage of kapp without co-chaperone is 616%.

B2: Sti1 (natural protein)
chain: MSLTADEYKQQGNAAFTAKDYDKAIELFTKAIEVSETPNHVLYSNRSACYTSLKKFSDALNDANECVKINPSWSKGYNRLGAAHLGLGDLDEAESNYKKALELDASNKAAKEGLDQVHRTQQARQAQPDLGLTQLFADPNLIENLKKNPKTSEMMKDPQLVAKLIGYKQNPQAIGQDLFTDPRLMTIMATLMGVDLNMDDINQSNSMPKEPETSKSTEQKKDAEPQSDSTTSKENSSKAPQKEESKESEPMEVDEDDSKIEADKEKAEGNKFYKARQFDEAIEHYNKAWELHKDITYLNNRAAAEYEKGEYETAISTLNDAVEQGREMRADYKVISKSFARIGNAYHKLGDLKKTIEYYQKSLTEHRTADILTKLRNAEKELKKAEAEAYVNPEKAEEARLEGKEYFTKSDWPNAVKAYTEMIKRAPEDARGYSNRAAALAKLMSFPEAIADCNKAIEKDPNFVRAYIRKATAQIAVKEYASALETLDAARTKDAEVNNGSSAREIDQLYYKASQQRFQPGTSNETPEETYQRAMKDPEVAAIMQDPVMQSILQQAQQNPAALQEHMKNPEVFKKIQTLIAAGIIRTGR
With B2 as the molecule, how does the ATPγS-induced closing rate kapp of the Hsp82 NM-FRET dimer (C61-ATTO 550 with C385-ATTO 488 protomers) with 4 µM Sti1, percentage of kapp without co-chaperone [1] read?
Its ATPγS-induced closing rate kapp of the Hsp82 NM-FRET dimer (C61-ATTO 550 with C385-ATTO 488 protomers) with 4 µM Sti1, percentage of kapp without co-chaperone is 40%.

What about the ATPγS-induced closing rate kapp of the Hsc82 NM-FRET dimer (C61-ATTO 550 with C381-ATTO 488 protomers) with 4 µM Sti1, percentage of kapp without co-chaperone [2] of the same molecule?
Its ATPγS-induced closing rate kapp of the Hsc82 NM-FRET dimer (C61-ATTO 550 with C381-ATTO 488 protomers) with 4 µM Sti1, percentage of kapp without co-chaperone is 19%.
